According to patent US20210252057A1 (published 2021):

How the values were obtained:
[1] = molecular target: T1, Merkel cell polyomavirus (MCPyV) T antigen (Large-T antigen) peptide on HLA-A*02:01 (human); experiment: killing
T1 peptide: KLLEIAPNC

[2] = molecular target: T2, MCPyV T antigen homolog (C9A of …) peptide on HLA-A*02:01 (human); experiment: cytokine release
T2 peptide: KLLEIAPNA

peptide on HLA-A*02:01 [3] = molecular target: T3, peptide on HLA-A*02:01 (human); experiment: cytokine release
T3 peptide: ALLEIAPNC

[4] = molecular target: T1, Merkel cell polyomavirus (MCPyV) T …; experiment: multimer staining
[5] = molecular target: T4, MCPyV Large-T sequence variant peptide on HLA-A*02:01 (human); experiment: cytokine release
T4 peptide: KLLEISPNC

[6] = molecular target: T5, MCPyV Large-T sequence variant peptide on HLA-A*02:01 (human); experiment: cytokine release
T5 peptide: KLLEITPNC

peptide on HLA-A*02:01 [7] = molecular target: T6, peptide on HLA-A*02:01 (human); experiment: cytokine release
T6 peptide: KALEIAPNC

peptide on HLA-A*02:01 [8] = molecular target: T7, peptide on HLA-A*02:01 (human); experiment: cytokine release
T7 peptide: KLLEIAANC

Measured: binding result

B1: TCR1072 (TCR, V domains shown)
Valpha: RKEVEQDPGPFNVPEGATVAFNCTYSNSASQSFFWYRQDCRKEPKLLMSVYSSGNEDGRFTAQLNRASQYISLLIRDSKLSDSATYLCVVTGTGGFKTIFGAGTRLFVKA
Vbeta: GEEVAQTPKHLVRGEGQKAKLYCAPIKGHSYVFWYQQVLKNEFKFLISFQNENVFDETGMPKERFSAKCLPNSPCSLEIQATKLEDSAVYFCASSSMSIAAGNTGELFFGEGSRLTVL
recognises: [1] | [2] | peptide on HLA-A*02:01 [3]

B2: TCR1007 (TCR, V domains shown)
Valpha: QQQVKQSPQSLIVQKGGISIINCAYENTAFDYFPWYQQFPGKGPALLIAIRPDVSEKKEGRFTISFNKSAKQFSLHIMDSQPGDSATYFCAVPNTGNQFYFGTGTSLTVIP
Vbeta: GAGVSQSPRYKVAKRGQDVALRCDPISGHVSLFWYQQALGQGPEFLTYFQNEAQLDKSGLPSDRFFAERPEGSVSTLKIQRTQQEDSAVYLCASSLIAGLSYEQYFGPGTRLTVT
not listed: [1] | peptide on HLA-A*02:01 [3]
recognises: all other assays above
